Test [1] addresses human BMP6 (R&D Systems, Cat #507-BP) (human) (UniProt P22004). Briefly: SPR (MASS-1), mAb captured on anti-human Fc, hBMP6 in solution, 25 C.
The target is the same in test [2]. Briefly: SPR (Biacore 3000), premix of 400 nM mAb and 10 nM hBMP6 over immobilised hActR2B-hFc (competitor), 25 C. For orientation: Surface plasmon resonance follows binding to a sensor surface in real time, without labels.
For test [3] the target is unchanged. Put plainly: SPR (MASS-1), mAb captured on anti-human Fc, hBMP6 in solution, 37 C.
Test [4] shares this target. Briefly: SPR (Biacore 3000), blocking of hBMP6 binding to immobilised hActR2B-hFc (competitor) by 400 nM mAb, 25 C.
Test [5] has the same target. Briefly: SPR (Biacore 3000), blocking of hBMP6 binding to immobilised hHJV-hFc (competitor) by 400 nM mAb, 25 C.
Test [6] has the same target. Briefly: SPR (Biacore 3000), premix of 400 nM mAb and 10 nM hBMP6 over immobilised hActR2A-hFc (competitor), 25 C.
Test [7] shares this target. Briefly: SPR (Biacore 3000), blocking of hBMP6 binding to immobilised hActR2A-hFc (competitor) by 400 nM mAb, 25 C.
For test [8] the target is unchanged. Put plainly: SPR (Biacore 3000), premix of 400 nM mAb and 10 nM hBMP6 over immobilised hHJV-hFc (competitor), 25 C.
For test [9], the target named is mouse BMP6 (R&D Systems, Cat #6325-BM) (mouse) (UniProt P20722). Put plainly: SPR (MASS-1), mAb captured on anti-human Fc, mBMP6 in solution, 37 C.
Chain of mouse BMP6 (R&D Systems, Cat #6325-BM) (mouse) (P20722 372-510 limits assumed): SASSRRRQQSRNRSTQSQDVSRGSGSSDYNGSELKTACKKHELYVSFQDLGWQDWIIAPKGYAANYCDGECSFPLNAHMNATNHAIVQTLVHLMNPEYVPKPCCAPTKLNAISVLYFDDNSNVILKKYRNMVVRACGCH
The target is the same in test [10]. Briefly: SPR (MASS-1), mAb captured on anti-human Fc, mBMP6 in solution, 25 C.

Chain of human BMP6 (R&D Systems, Cat #507-BP) (human) (P22004 375-513 limits assumed): as the sequence (P20722 372-510 limits assumed) above, with S21A, G23V, G25S, S26A, G31S, K39R counted along it

With Isotype Control mAb (antibody), the 60 nM hBMP6 Bound (RU) in test [1] and in test [3] was 2 RU each time. Further, the 400 nM mAb + 10 nM hBMP-6 Binding (RU) in test [2] was determined as 187 RU; in test [6], 246 RU; in [8], 299 RU. In addition, the % Blocking came to 25% in test [4], 41% in test [5] and 43% in test [7]. Further, the 60 nM mBMP6 Bound (RU) in test [9] and in [10] was 3 RU throughout.

The values are drawn from patent publication US20220251184A1.
